Where two headings read alike, the source gives them in different places.
Assays:
non-reducing SDS-PAGE [1] = biological target: the molecule itself; assay: non-reducing SDS-PAGE
non-reducing SDS-PAGE [2] = biological target: the molecule itself; assay: non-reducing SDS-PAGE; remark: listed apart in the source

B1: Fgf15 (wild-type, mouse), in Hek293T conditioned medium (ligand, UniProt O35622 26-218, looked up)
chain: RPLAQQSQSVSDEDPLFLYGWGKITRLQYLYSAGPYVSNCFLRIRSDGSVDCEEDQNERNLLEFRAVALKTIAIKDVSSVRYLCMSADGKIYGLIRYSEEDCTFREEMDCLGYNQYRSMKHHLHIIFIQAKPREQLQDQKPSNFIPVFHRSFFETGDQLRSKMFSLPLESDSMDPFRMVEDVDHLVKSPSFQK
- stoichiometry N (non-reducing SDS-PAGE [1]): 2

B2: Fgf15 (wild-type, mouse), in serum of mice after hydrodynamic delivery of the plasmid (ligand, UniProt O35622 26-218, looked up)
chain: B1 chain
- stoichiometry N (non-reducing SDS-PAGE [2]): 2

Source: PMC12315504 (The FASEB Journal, 2021)
